Experimental data as given in paper PMC13233068, “HSD17B7 is required for the function of sensory hair cells by regulating cholesterol synthesis” (eLife, 2026).

Molecular target: T1, GST-HSD17B7 fusion protein (human, UniProt P56937-1 1-341)
T1 construct: HSD17B7 (17β-hydroxysteroid dehydrogenase type 7), human, full-length cDNA amplified from HEK293T cDNA; 341 aa by the domain limits printed (1-229, 230-250, 251-341); also called 17β-Hydroxysteroid dehydrogenase type 7
T1 sequence (looked up): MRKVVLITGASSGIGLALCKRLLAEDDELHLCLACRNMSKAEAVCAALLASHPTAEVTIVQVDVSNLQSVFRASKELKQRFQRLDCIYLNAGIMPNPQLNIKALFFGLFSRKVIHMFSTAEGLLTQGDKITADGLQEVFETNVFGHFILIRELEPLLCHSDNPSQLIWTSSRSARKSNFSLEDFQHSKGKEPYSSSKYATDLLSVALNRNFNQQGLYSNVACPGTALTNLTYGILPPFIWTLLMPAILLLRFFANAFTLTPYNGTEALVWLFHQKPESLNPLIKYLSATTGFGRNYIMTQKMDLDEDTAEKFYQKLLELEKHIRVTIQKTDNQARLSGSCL
Test: pull-down; GST and GST-HSD17B7 immobilised on GSH resin, incubated with purified His-RER1 overnight at 4°C, washed with 0.3% PBST; Coomassie staining and western blot
Settings: both partners purified

- binding result: binds
B1: RER1-His (natural protein, human (cDNA from HEK293T), UniProt O15258 1-196, looked up)
chain: MSEGDSVGESVHGKPSVVYRFFTRLGQIYQSWLDKSTPYTAVRWVVTLGLSFVYMIRVYLLQGWYIVTYALGIYHLNLFIAFLSPKVDPSLMEDSDDGPSLPTKQNEEFRPFIRRLPEFKFWHAATKGILVAMVCTFFDAFNVPVFWPILVMYFIMLFCITMKRQIKHMIKYRYIPFTHGKRRYRGKEDAGKAFAS
notes: RER1, full-length cDNA amplified from HEK293T cDNA; The legend prints RER1-His, the methods His-RER1; the pET-23b vector would add a C-terminal His tag (surmised); Detected by immunoblot of the His tag; also called His-RER1; ER retention receptor RER1
